Assay results from the DeepSol protein solubility set.

Experiment: soluble on expression in E. coli; label from the status in PepcDB or PDB records

Sequence: MGSDKIHHHHHHMANTSSDWAGAPQNASADGEFVRDTNYIDDRIVADVPAGSEPIAQEDGTFHWPVEAGRYRLVAARACPWAHRTVITRRLLGLENVISLGLTGPTHDVRSWTFDLDPNHLDPVLQIPRLQDAYFNRFPDYPRGITVPALVEESSKKVVTNDYPSITIDFNLEWKQFHREGAPNLYPAELREEMAPVMKRIFTEVNNGVYRTGFAGSQEAHNEAYKRLWVALDWLEDRLSTRRYLMGDHITEADIRLYPTLVRFDAVYHGHFKCGRNKITEMPNLWGYLRDLFQTPGFGDTTDFTEIKQHYYITHAEINPTRIVPVGPDLSGFATPHGREKLGGSPFAEGVTLPGPIPAGEEVKNPEPFQK
- soluble on expression in E. coli: not soluble

Sequence: MSLEIADLKVHFDIKEGKQWFWQPPKTLKAVDGVTLRLYEGETLGVVGESGCGKSTFARAIIGLVKATDGKVAWLGKDLLGMKADEWREVRSDIQMIFQDPLASLNPRMTIGEIIAEPLRTYHPKLSRQDVRDRVKAMMLKVGLLPNLINRYPHEFSGGQCQRIGIARALILEPKLIICDEPVSALDVSIQAQVVNLLQQLQREMGLSLIFIAHDLAVVKHISDRVLVMYLGHAVELGTYDEVYHNPLHPYTKALMLAVPIPDPDLERNKKIQLLEGELPSPINPPSEGHHHHHH
- soluble on expression in E. coli: soluble

Sequence: MGSDKIHHHHHHMTHFGVDLWDRFTTRIGEARETLRAAGAPTGLLDQAEGARYLSRIVRLGLEMYLEGGDPDFPSFVLPSHATAKLGGDNPDNLYLSATILGDRSYRLTGNIGSVHYLSIGSKANRYAIDGTMASTGELQKEAFRADANGDFTVIASVKRPEGDVAWLPLAPDSNILQVRQTFLNRARETPARFAIERISEGLAHPAPTDPLAIERRMMAAADFVVNATRMFASWTAMFMPYPNEMRDWGQDMFHKAGGDPAIFYVHGYWKLAPGERLLIETDVPECEHWNIQVDNWWMESMDYRYLPACINAGNAEREADGSVRIVLAADDPGERNWLTTHGHSEGHLLLRWVRAASHPIPKLTLLRD
- soluble on expression in E. coli: not soluble

Sequence: MDKTTHDKGLEIRKAVLGEAYVENALKNADDFNQPFQELVTEYCWGAIWGRDGLPKKTRSMLNLAMIAILNRPHELRAHIKGALTNGVTKDEIREIFMQVACYAGIPAGVDSFRIAREVFAELDKA
- soluble on expression in E. coli: not soluble

Sequence: PGAKVRVFHLLPFRREDLVPEEVLASVRDYLRTTKEQGLTMRVAMHGGNTEGDFSVSTAQALKGLFANEGIPLEFDETCANRTSETLLGAVILDDNSTHFIKHLVAQ
- soluble on expression in E. coli: not soluble

Sequence: MSLNDILNEFIDKYFPLSNEPLLPDFKDLNYPENLPTLVIDLNYVIAKLEYDRKTGWRVLKRPYADRFFKELSSFYEIVIWSDDNFPVAQEVISKWGIPAIGCLHRDQCSKKKKSYVKDLKRLGRNLDRVVIIDHDAKAFMLQPENGILIKEFHGDLNDKEMLCLIDLLKSFAISTHDISQFLKKHGGGDYNIGKRYLQQKEGHHHHHH
- soluble on expression in E. coli: soluble

Sequence: MGRLADTLDALSVRALSPDHRIQGQLHHRTKVDISFTSEDSYYEYKSEQAVAAQLSAVLNALIVGRNEGFCAAVREVTDLRLDDRPHWDARRRRFREERDGAPLEGQSAGGWLTVASVGLRDANATVKPGAFDELDASGFLIEVHSAIADLWKDQAMAMSYLRRTHFG
- soluble on expression in E. coli: not soluble

Sequence: MEKNRSAFQQNQQASNQPFNQDQNQYYQDPNQQQFNQSGFDPNQQQFNQPGFDPNQQYYQDPNQQQFNQAGFDQNQQYYQDPNQQQFNQPGFDPNQQYYQDPNQQQFNQAGFDQNQYYQDPNQQQFNQSGFDQNQYYQDPNQQQFNQPSFDLNNQQFNQPGFNQSPAFEITPQEQKAEQEMFGEEPPQVVREIHELPFEKIRSFLQSDFDSYNFRLNSLKSKLDNALYSLDKTIQNTNENTANLEAIRHNLEQKIQNQSKQLRTNFDTQKLDDKINELEIRMQKLTRNFESLSELSKHNSYPNYYEKLLPNGGDSMTNVFEKALMMNLLRTTLPPQPQVQYYPQPYPYIRPYYDEPIYAGFRRRGYRDDFYE
- soluble on expression in E. coli: soluble

Sequence: MGSDKIHHHHHHMPIKALRLKAMQLKATRLKAKLLQARLLQASALLGTSLNLVAMAAPYNAINESIDDGFVEAGDILVIAIPATGYLASWLYDDFEGAKQLTFSVLTTQLIVEATKSTVGRYRPNSNVAGGSYKSFPSGHSAGAFSGAAFLQSRYGSRWGIPAYLGAGVVAASRVHGRRHYADDVLGGAGIAILVNQYFVERYDNQGLAVSLFPNDEGGLQFNLSMPLDGPLNGRAGPRAEKRAQPAVHGPKRHRFAVNLGFNMTDSLGMAGAKDLLPDSQLVDDHQPFSYLLYEYLDSSKTSLQLELSPNETRLFGTLSGEFELDGKQYQDGDSLYLAFKQWSLGSQYFYRFAPQGDWHFKLGGGLYAYWVELEVDYLTGGQYAGEGSLEVMPSIEGRTRYHIGGGLSADAMARFQAWSGNQLVAAEAGLSYALGEEWVMGLKYAYSEAKWDALNMEYQTDSIVLTVENRF
- soluble on expression in E. coli: not soluble

Sequence: SLISYCSDSGDENISCTKKMVVTVTVEGEQLPGEESLLFLNSATDMTVNNGTSVQFSPLRITTSRSAVRYRYPLFYVQNYNAKPYEATVKGSLLNQCNADFNADTATCGLAYDAAGKAIPYSQGFCCDCSMCQTLGLCQPDARANAACNVFGKYTTASCLRFAQRWYSGYTIGGYMTWYTVNLTLSRNVSDSGGAGAAEKVVMRLSPSNNGEVAGEGWDVMARIVGTYAPVDQPLDLTSRMLFAPAIPPNDARVQAGAAEWLLLPTNLVTLDGRECDKVGVSYEAFASQGNKCNLRPGSCLSSQLEDYRTADLQRIAAGNKGQYMATSFGDFNLENDAATSPYISYLAASPAATMISITVSADDLEYTVGLASGKIISTDMNKPTLQAGTADGVMTVMVRNTAAVTGRLVVGTLNCSDGVF
- soluble on expression in E. coli: not soluble

Sequence: MLKFNEEQQIKDIRGALALRSDVEKVVDQVWTKGFDAVYYIGIGGTYASAMQAVTYANGKSNLPIYVQHAAEYYTTGNKRLTEKSFVILSSVTGTTQEVVQAVQEIKKVGATLFGFIDAKDSLLADLCDYVVTYPAPGTEQIKFFMVADRLMQKNNEFTDYENYYQELEEYLPTGLAEAEKSADAFGLAFAEKHRHDSIHYFIGAGNQWGAVYSYAMCYWEEQSWLRSKSIHAAEFLHGTLEIVDETTPVTLFIGEDEQRPLAERVAKLLPKICANYTIIDSKAYELPGISEKYRGRVVSFLLMHAVTQRIDAHVEKLNCHPLEIRRYYRQFDY
- soluble on expression in E. coli: not soluble

Sequence: MGHHHHHHSHMANSAGSMANSAGSMFDGISLTEHQRQQMRDLMQQARHEQPPVNVSELETMHRLVTAENFDENAVRAQAEKMANEQIARQVEMAKVRNQMYRLLTPEQQAVLNEKHQQRMEQLRDVTQWQKSSSLKLLSSSNSRSQ
- soluble on expression in E. coli: not soluble

Sequence: MAHHHHHHMHLDEEYGNRSSSVSCDSSDAASAHSSSSDSASSAGGRQQRQRGNGSGGTETASLLSLPTASHANHAGCSVCGSATSLASRVSLLSTLSQHSAASYLSFISVLRPSITAGSAAGGTGAGGSADGDGAAGAGQQMHESEDGNTNLPLILLEQLALGLHRFMEAYPAELLDRYGLRSVSWSSIARMFATVEKSLVNTTTTAGAAAGAAAAAAPRQANHFPNDQEPPQPLFNLAQDIRYNKGMGYECLGLLFAKVVAPLLDPASSRAIASTSWSPPQQHQLRRSTGEATGTEDDDGSGGGARSDGGGTQEEFFANAAAVAATVGRAVLTIDDDPATRASVEAALSRCLTAYETVAPQVVDMNLPTILRLAARTAATSAGSTTSLRASASPSSLSIVLVDFVRDITARLGRGNDLPHLVDALLQRGDFAANASATAAASAVVDGSGDKASTIRSLRAVFSLPPVRQAVMEAAGTSLDPESLLRRLSGVAAELEEDNKSSSSSSSAQDEKQVELSSTARSCRKHDDARVQRMLLALELMEALLAGVTPTCVSASAVLEHTTQLELLLSSSFMAAVEELKGVCGEALDDRRALMIQHMYTIRQCRAVTILCLQDLGTQQVHDYLRMLEDALWQLTSHVGNLVGSLTLAELQPLLRPHPARYGGSEVLAPSPSALEQLQVQLLPSSLILQRPVASARSDRRPGNSRRARRGAP
- soluble on expression in E. coli: not soluble

Sequence: MGSDKIHHHHHHMMNERIKQRRKELGLTQPSIAKTIGLTKATISLWESGSTSPKGENLHALAKALRCAPEFLLFGNDSIKPEPNAEWAGGFETWGSNSPLGDDEVEIPFYMEVELAAGDGIIDCREYQGPKLRFAKSTLKRQGVTSDHAACVKVNGNSMEPVLPNGSTVGVDTAHTDIVDGKMYAINHDGMLRVKMLYKLPGGGLRLRSYNLDEYPDERLDAEELKQVKVIGKVFWYSVLV
- soluble on expression in E. coli: not soluble

Sequence: MKPYERLLEHNIKPSMQRIAIMEYLMNHPIHPSADDIYTALSPSMPTLSKTTVYNTLRLFSEQGAALMLTIDEKNTNFDADTSVHSHFLCRYCGHIYDLKSPEAVKKVESLEMDGHQVTEVHYYYKGICKNCLRKDKETRID
- soluble on expression in E. coli: not soluble

Sequence: MAHHHHHHMMPTQSEEQTKAQIPKSQAKIVNELIENKDTICAWCFDVLKYELKNEKFDKVPPLIQSLHNDGFKIPFFVKWMKLNDVKDMGSYNYDAYELNGCIGCLGETDIMELRYYALESSLNDTRFYPITLKDFPFLIVTITYLFNFEKCAHVYDWVIGKHGIKISFVANKRRYSSTFLPEVASQHNFDHQTTVKKLIRKANYRGEINDELLENIEVERYEGVSCSLTHVDYERVKRD
- soluble on expression in E. coli: soluble

Sequence: MSLSYLPLDEYQRKWIFTHQSMPVPEEDLAQIKPMSQARSAQFWKENISAQSPDMDRLSSQDWPMKESNWSETVDWMAAWESDEPNMPTEVETHIDWQDDVTVYFCYEKYNVIETKWSIFKKHWKNFLFYDDGPMLLGRRRAQALWFDSKGNVKLGERHEGHHHHHH
- soluble on expression in E. coli: soluble

Sequence: MSPFGKIAIVGSGLVGSSWATIFASSGYEVQMYDISEKQLQVALENVEKNLRKLDEHGLQRGNLSADEALLRVSTTTSLNEVMKNAIYMQESALEDLNFRIQFYKVIDEIADPTTILASSTSTIPASKFTDGLINKERCLIVHPVNPPLFLPLTELVPAPWTSQDTVDRAAEIMRSVKQEPVKLKKEVLGFVVNRLQFALLAETWRLVADGVIGVNDVDAVMSAGLGPRYAFNGTCETVHLNAFGVRDYFKRYAAGITAVLKDMGPIPDFTDEKVINKLEEELEPKMSTLNIRKHQAEREEKLVEIAKLKKDLNL
- soluble on expression in E. coli: not soluble

Sequence: LVGSRREIAARNLELCFPEKSPAERERLLKENFASSGIAFFEMAMSWWWPKARLARLAHIEGLEHLREAQAQGEGVILMALHFTTLEIGAALLGQVHTIDGMYREHDNPVFDYVQRRGRERHNLDATAIEREDVRSMLKVLRGGRAIWYAPDQDYGAKQSLFVPLFGIPAATVTATTKFARLGRARVLPFTQSRLADGSGYRLTIHPPLEDFPGESEEADCLRINQWVERCVRQQPEQYLWAHRRFKTRPPGEAK
- soluble on expression in E. coli: not soluble

Sequence: MAHHHHHHMSNELLQGAALYKELLCVYHNLAESELGLSGGDVGALFQIKENLSQPISCDIQKCKEILTKLKLVLIHLPSVDPLVPIGKKNINELLLARHILEKGVIISILDRDIKAFSIYMAQLLLYYFDYCNFLPKSGNQNGIIGMYLLYLLSSNLIGDFHMTLEVISIEDQSDEYIKYALELEQHIMDGYFHHVLTKKENIPLYLYSLFIERLYNTIRHKLADCLFASSNCISSEYACELLKLGSEQELCQFIGEYNEAKTSQGECNLLWEVRNKKIYFNNQTVHVQDLPALEVLNNTIGYATELERIV
- soluble on expression in E. coli: not soluble

Sequence: ADETLAEFHVEMGGCENCHADGEPSKDGAYEFEQCQSCHGSLAEMDDNHKPHDGLLMCADCHAPHEAKVGEKPTCDTCHDDGRTAK
- soluble on expression in E. coli: soluble
